Values joined by “and” are separate entries in the source; they are usually repeats but may differ in a detail not shown here. Equal entries are not always repeated.
Tests used:
Experiment in all cases: fluorescence anisotropy
[1] = target: Gal4LOV(SK22) C450V (/ Avena sativa (chimera)) (UniProt P04386); details: dark; 20 mM HEPES pH 7.5, 50 mM NaCl, 50 ug/mL BSA, 5% Ficoll 400; 2 nM DNA; temperature not stated
[2] = target: Gal4LOV(SK22) V416L (/ Avena sativa (chimera)) (UniProt P04386); details: 20 mM HEPES pH 7.5, 50 mM NaCl, 50 ug/mL BSA, 5% Ficoll 400; 2 nM DNA; temperature not stated
[3] = target: Gal4LOV(SK22) (Gal4 DBD with AsLOV2 inserted between Ser22 and Lys23, no VP64) (/ Avena sativa (chimera)) (UniProt P04386); details: 20 mM HEPES pH 7.5, 50 mM NaCl, 50 ug/mL BSA, 5% Ficoll 400, 2 nM DNA, temperature not stated
[4] = target: Gal4LOV(SK22) I532E/A536E (/ Avena sativa (chimera)) (UniProt P04386); details: dark; 20 mM HEPES pH 7.5, 50 mM NaCl, 50 ug/mL BSA, 5% Ficoll 400; 2 nM DNA; temperature not stated

TCTTCGGAGGGCTGTCACCCGAATATA (double strand) [1xUAS 27-bp DNA]
Kd [1]: 8.8 nM
Kd [2]: 8.6 nM and 16.6 nM
Kd [3]: 4.2 nM
Kd ([3]; dark): 6.4 nM
Kd [4]: 13.4 nM
